Measured values: patent US20140286950A1 (Genentech, published 2014)

T1: N-terminal HIS-tagged human CD83 stably expressed on CHO cells (CHO-hCD83) (human, UniProt Q01151 20-205)
T1 construct: also called CHO cells expressing human CD83; not shown: N-terminal HIS tag
T1 sequence: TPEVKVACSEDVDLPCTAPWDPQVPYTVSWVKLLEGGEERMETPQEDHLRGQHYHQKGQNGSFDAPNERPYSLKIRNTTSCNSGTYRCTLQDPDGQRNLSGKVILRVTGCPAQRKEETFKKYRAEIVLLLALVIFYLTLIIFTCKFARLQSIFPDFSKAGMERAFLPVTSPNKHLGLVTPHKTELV

T2: N-terminal HIS-tagged mouse CD83 stably expressed on CHO cells (CHO-mCD83) (mouse, UniProt O88324 22-196)
T2 construct: whole, on cells; also called CHO cells expressing mouse CD83; not shown: N-terminal HIS tag
T2 sequence (looked up): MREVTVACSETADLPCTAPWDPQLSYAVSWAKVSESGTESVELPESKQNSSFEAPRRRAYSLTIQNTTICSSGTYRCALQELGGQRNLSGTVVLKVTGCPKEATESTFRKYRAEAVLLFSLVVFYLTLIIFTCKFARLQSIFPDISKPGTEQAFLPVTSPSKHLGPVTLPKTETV


What was measured:
[1] = molecular target: T1, N-terminal HIS-tagged human CD83 stably …; assay: flow cytometry on CHO-hCD83 cells, anti-hamster IgG secondary
Procedure: (§1) The generated antibodies were assayed for their ability to bind human CD83 or mouse CD83 stably expressed on CHO cells. To generate an expression vector for the production of the stable cell lines, a DNA fragment encoding an N-terminal HIS-tagged human CD83 (hCD83) or an N-terminal HIS-tagged mouse CD83 (mCD83) was cloned into the neomycin-resistance plasmid, pRKneo (Crowley et al., Proc Natl Acad Sci USA., 90(11):5021-5025, 1993), at the XbaI and XhoI sites to produce hCD83.pRKneo or mCD83.pRKneo, respectively. CHO cells were transfected with hCD83.pRKneo or mCD83.pRKneo using Fugene (Roche) and the top 10% of CD83 positive cells were sorted by FACS then selected with G418 ([…]; GIBCO) to generate the stable CHO-hCD83 or CHO-mCD83 cell line, respectively. CHO-hCD83 and CHO-mCD83 cells were resuspended in a FACS buffer containing PBS/2% BSA/2 mM EDTA and incubated with anti-human CD83 antibodies or anti-mouse CD83 antibodies for 30 minutes on ice. Cells were washed with FACS buffer and then incubated with a fluorochrome conjugated anti-hamster IgG secondary antibody for 30 minutes on ice in the dark. Cells were washed with FACS buffer and analyzed by flow cytometry on a LSR II flow cytometer using FACSDiva software (Becton Dickinson). Data analysis and construction of diagrams was done using FlowJo v.9.4.11.

[2] = molecular target: T2, N-terminal HIS-tagged mouse CD83 stably …; assay: flow cytometry on CHO-mCD83 cells, anti-hamster IgG secondary
Procedure: as §1

binding result [1] | binding result [2] | Binder
binds | binds | anti-CD83 antibody 60B10 (antibody, V domains shown, also called 60B10 Anti-human CD83) VH: QVQLKESGPGLVKPSQSLSLTCSVTGFSITTGGYWWTWIRQFPGQKLEWMGYIFSSGNTNYNPSIKSRISITRDTSKNQFFLQLNSVTTEGDTARYYCARAYGKLGFDYWGQGTLVTVSS VL: QPVLTQSPSASASLGNSVKITCTLSSQHSTYTIGWYQQHPDKAPKYVMYVNSDGSHSKGDGIPDRFSGSSSGAHRYLSISNIQPEDEADYFCGSSDSSGYVFGSGTQLTVL
no binding | binds | anti-CD83 antibody 42C6 (antibody, V domains shown, also called 42C6 Anti-mouse CD83) VH: QVQLKESGPGLVKPSQSMSLTCSVNGFSITSRYWWTWIRQFPGKNLEWMGYISYSGGTSYNPSLKSRISITRDTSKNQFFLHLNSVTTADTATYYCARDLYGTYFDYWGQGTMVTVSS VL: QYELIQPKSVSESLGRTVTISCKRSSGNIGNNYVHWYQQHFGSSPKTVIYDDNKRPSGVPHRFSGSIDSSSNSASLTITDLQIEDEAEYYCQSAWVFGSGTKVTVL
no binding | binds | anti-CD83 antibody 39A2 (antibody, V domains shown, also called 39A2 Anti-mouse CD83) VH: QVQLKESGPGLVKPSQSMSLTCSVNGFSITSRYWWTWIRQFPGKNLEWMGYISYSGGTSYNPSLKSRISITRDTSKNQFFLHLNSVTTADTATYYCARDLYGTYFDYWGQGTLVTVSS VL: QYELIQPKSVSESLGRTVTISCKRSSGNIGNNYVHWYQQHFGSSPKTVIYDDNKRPSGVPHRFSGSIDSSSNSASLTITDLQIEDEAEYYCQSAWVFGSGTKVTVL
